Results: patent publication US7291332B2, “Inflammatory mediator antagonists” (SmithKline Beecham Corporation, priority 1998, dated 2007)
Residue numbers refer to the chain shown, from its start. In names and notes the source's numbering stands.

B1: (4) Y10A: OSM-GST fusion, alanine for Tyr 10 (protein)
chain: AAIGSCSKEARVLLGQLQKQTDLMQDTSRLLDPYIRIQGLDVPKLREHCRERPGAFPSEETLRGLGRRGFLQTLNATLGCVLHRLADLEQRLPKAQDLERSGLNIEDLEKLQMARPNILGLRNNIYCMAQLLDNSDTAEPTKAGRGASQPPTPTPASDAFQRKLEGCRFLHGYHRFMHSVGRVFSKWGESPNRSRR
modifications: left off: a dimerising Fc or GST; large carriers; small tags and cut ends
B2: (15) D22: OSM-GST fusion, alanine for Asp 22 (protein)
chain: B1 chain with A10Y, D22A
modifications: left off: a dimerising Fc or GST; large carriers; small tags and cut ends
B3: (26) Q25A: OSM-GST fusion, alanine for Gln 25 (protein)
chain: B1 chain with A10Y, Q25A
modifications: left off: a dimerising Fc or GST; large carriers; small tags and cut ends
B4: (7) L14A: OSM-GST fusion, alanine for Leu 14 (protein)
chain: B1 chain with A10Y, L14A
modifications: left off: a dimerising Fc or GST; large carriers; small tags and cut ends
B5: (24) Y126A: OSM-GST fusion, alanine for Tyr 126 (protein)
chain: B1 chain with A10Y, Y126A
modifications: left off: a dimerising Fc or GST; large carriers; small tags and cut ends
B6: (16) M113A: OSM-GST fusion, alanine for Met 113 (protein)
chain: B1 chain with A10Y, M113A
modifications: left off: a dimerising Fc or GST; large carriers; small tags and cut ends
B7: (21) R122A: OSM-GST fusion, alanine for Arg 122 (protein)
chain: B1 chain with A10Y, R122A
modifications: left off: a dimerising Fc or GST; large carriers; small tags and cut ends
B8: (5) R11A: OSM-GST fusion, alanine for Arg 11 (protein)
chain: B1 chain with A10Y, R11A
modifications: left off: a dimerising Fc or GST; large carriers; small tags and cut ends
B9: (12) K19A: OSM-GST fusion, alanine for Lys 19 (protein)
chain: B1 chain with A10Y, K19A
modifications: left off: a dimerising Fc or GST; large carriers; small tags and cut ends
B10: (25) Y130A: OSM-GST fusion, alanine for Gln 130 (protein)
chain: B1 chain with A10Y, Q130A
modifications: left off: a dimerising Fc or GST; large carriers; small tags and cut ends
B11: (19) L119A: OSM-GST fusion, alanine for Leu 119 (protein)
chain: B1 chain with A10Y, L119A
modifications: left off: a dimerising Fc or GST; large carriers; small tags and cut ends
B12: (11) Q18A: OSM-GST fusion, alanine for Gln 18 (protein)
chain: B1 chain with A10Y, Q18A
modifications: left off: a dimerising Fc or GST; large carriers; small tags and cut ends
B13: (27) D26A: OSM-GST fusion, alanine for Asp 26 (protein)
chain: B1 chain with A10Y, D26A
modifications: left off: a dimerising Fc or GST; large carriers; small tags and cut ends
B14: (14) T21A: OSM-GST fusion, alanine for Thr 21 (protein)
chain: B1 chain with A10Y, T21A
modifications: left off: a dimerising Fc or GST; large carriers; small tags and cut ends
B15: (10) L17A: OSM-GST fusion, alanine for Leu 17 (protein)
chain: B1 chain with A10Y, L17A
modifications: left off: a dimerising Fc or GST; large carriers; small tags and cut ends
B16: (17) P116A: OSM-GST fusion, alanine for Pro 116 (protein)
chain: B1 chain with A10Y, P116A
modifications: left off: a dimerising Fc or GST; large carriers; small tags and cut ends
B17: (8) G15A: OSM-GST fusion, alanine for Gly 15 (protein)
chain: B1 chain with A10Y, G15A
modifications: left off: a dimerising Fc or GST; large carriers; small tags and cut ends
B18: (18) N117A: OSM-GST fusion, alanine for Asn 117 (protein)
chain: B1 chain with A10Y, N117A
modifications: left off: a dimerising Fc or GST; large carriers; small tags and cut ends

system: HepG2 B6 cells (STAT-sPAP reporter); assay: OSM-GST mutant driven sPAP production in HepG2 B6 assay; type: cell-based, human; conditions: not given
Procedure: HepG2 B6 cells were plated into 96 well plates to a final concentration of 3×10^4 cells per well in 100 μl of media (DMEM (Sigma), 10% HI FCS, 1% non-essential amino acids, 2 mM Glutamine, 500 μg ml^−1 G418, (all from Life Technologies)). Cells were allowed to equilibrate for 48 hours. Putative anti-OSM solid compounds were made up to a stock dilution of 20 mM in DMSO and serially diluted 1:3 in DMSO. This was then further diluted in HepG26B assay media, this is as above media but with 1% heat inactivated FCS, low alkaline phosphatase activity (Life Technologies) substituted for 10% HI FCS. Compounds were diluted 1:3 from a top concentration of […] to a final concentration of 0.09 μM in a final concentration of 1% DMSO. (That is 200, 66.67, 22.22, 7.41, 2.47, 0.82, 0.27, 0.09 and 0 μM). The old media was removed from the wells and replaced with diluted compound also containing 2 ng ml^−1 OSM (R&D Systems), cells were incubated for a further 20 hours. Each dilution was performed in triplicate. 20 μl of media was removed from each well and assayed for sPAP activity using pNPP (p-Nitrophenyl phosphate; Sigma), as a substrate. Endogenous alkaline phosphatase is blocked with L-homoarginine. Optical density of substrate is read at 405-650 nm. Concentration of compound is plotted against OD as a measure of sPAP produced and can be analysed to determine IC50 values.
The assay described in Example 7b above was employed. OSM-GST mutants were diluted to a concentration of 100 ng ml^−using the known concentration of intact OSM mutants generated in Example 9b. A wild type OSM-GST was included for control purposes. Dilutions were made in HepG2 B6 media with 1% heat inactivated FCS, low alkaline phosphatase activity. Serial 1:3 dilutions were then made. (100; 33.33; 11.11; 3.7; 1.23; 0.4 ng ml^−1). 3×10^4 HepG2 B6 were dispensed into individual well of a 96 well plate in 100 μl of media. Cells were allowed to equilibrate for 48 hours. Media was then removed and replaced with 100 μl of diluted OSM-GST mutant. Cells were incubated for a further 20 hours. Each dilution was performed in triplicate. 20 μl of media was removed and assayed for sPAP using pNPP as a substrate. Endogenous ALP was blocked with L-homoarginine. O.D. was read at 405-650 nm. The experiment was repeated twice.

| Expt 1 EC50 [ng/mL] | Expt 2 EC50 [ng/mL] | Expt 3 EC50 [ng/mL] | Molecule |
| --- | --- | --- | --- |
| 24 | 32 | – | wild type: wild type human OSM-GST fusion protein [reference compound] |
| 32.4 | 82 | – | B1 |
| 36.7 | 16 | – | B2 |
| 13.3 | 13 | – | B3 |
| 19.4 | 24.9 | – | B4 |
| 93 | 10.3 | 40.8 | B5 |
| 25.6 | 25 | – | B6 |
| 32.4 | 13.8 | 47.3 | B7 |
| 28.6 | 27.7 | – | B8 |
| 23.6 | 11.9 | – | B9 |
| 12.5 | 8.2 | – | B10 |
| 27.8 | 23 | – | B11 |
| 20.2 | 21.7 | – | B12 |
| 19.5 | 25.5 | – | B13 |
| 17 | 10.5 | – | B14 |
| 72.7 | 56 | – | B15 |
| 25 | 15 | – | B16 |
| 21 | 17.8 | – | B17 |
| 58 | 42.5 | – | B18 |

same assay, conditions: relative to wild type, from Mean %

| Molecule | 'Potency' |
| --- | --- |
| B1 | LESS (>120% Less potent than wild type) |
| B2 | EQUAL (80-120% Equal potency) |
| B3 | MORE (<80% More potent) |
| B4 | MORE (<80% More potent) |
| B5 | LESS (>120% Less potent than wild type) |
| B6 | EQUAL (80-120% Equal potency) |
| B7 | EQUAL (80-120% Equal potency) |
| B8 | EQUAL (80-120% Equal potency) |
| B9 | MORE (<80% More potent) |
| B10 | MORE (<80% More potent) |
| B11 | EQUAL (80-120% Equal potency) |
| B12 | MORE (<80% More potent) |
| B13 | EQUAL (80-120% Equal potency) |
| B14 | MORE (<80% More potent) |
| B15 | LESS (>120% Less potent than wild type) |
| B16 | MORE (<80% More potent) |
| B17 | MORE (<80% More potent) |
| B18 | LESS (>120% Less potent than wild type) |
